Results published in patent publication US20160136234A1.

Key:
Experiment in all cases: cell-based or functional assay
MKK6 (h) (human) = MKK6 (h) (human) (UniProt P52564)
SAPK4 (h) (human) = target: T1, SAPK4 (h) (human) (UniProt O15264)
T1 sequence (looked up): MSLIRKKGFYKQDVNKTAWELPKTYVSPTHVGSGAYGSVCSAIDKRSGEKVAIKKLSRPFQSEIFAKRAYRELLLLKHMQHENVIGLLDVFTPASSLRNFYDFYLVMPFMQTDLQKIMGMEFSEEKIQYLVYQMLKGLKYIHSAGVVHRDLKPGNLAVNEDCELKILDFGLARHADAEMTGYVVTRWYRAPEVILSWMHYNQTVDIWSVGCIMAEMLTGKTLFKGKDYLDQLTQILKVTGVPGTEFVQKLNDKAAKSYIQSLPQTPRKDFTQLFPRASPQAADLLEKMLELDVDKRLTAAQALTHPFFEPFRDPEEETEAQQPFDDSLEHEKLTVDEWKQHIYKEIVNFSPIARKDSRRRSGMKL

WNK2 (h) (human) = WNK2 (h) (human) (UniProt Q9Y3S1)
MEK1 (h) (human) = MEK1 (h) (human) (UniProt Q02750)
DAPK2 (h) (human) = DAPK2 (h) (human) (UniProt Q9UIK4)
ULK3 (h) (human) = target: T2, ULK3 (h) (human) (UniProt Q6PHR2)
T2 sequence (looked up): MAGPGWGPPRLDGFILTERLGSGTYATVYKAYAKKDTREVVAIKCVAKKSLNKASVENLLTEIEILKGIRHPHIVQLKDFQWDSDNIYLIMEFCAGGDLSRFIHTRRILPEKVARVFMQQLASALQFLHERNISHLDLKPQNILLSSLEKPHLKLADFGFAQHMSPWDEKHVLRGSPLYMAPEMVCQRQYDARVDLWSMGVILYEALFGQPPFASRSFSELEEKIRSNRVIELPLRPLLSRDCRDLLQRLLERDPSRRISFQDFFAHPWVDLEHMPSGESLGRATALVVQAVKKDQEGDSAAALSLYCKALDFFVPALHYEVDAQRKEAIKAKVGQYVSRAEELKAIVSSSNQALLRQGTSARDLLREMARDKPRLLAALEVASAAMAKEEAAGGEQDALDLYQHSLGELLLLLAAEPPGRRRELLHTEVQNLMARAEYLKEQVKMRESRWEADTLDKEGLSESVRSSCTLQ

ROCK-I (h) (human) = ROCK-I (h) (human) (UniProt Q13464)
[1] = target: IGF-1R (h), activated (human) (UniProt P08069)
IGF-1R (h), activated (human), sequence (P08069 959-1367 limits assumed): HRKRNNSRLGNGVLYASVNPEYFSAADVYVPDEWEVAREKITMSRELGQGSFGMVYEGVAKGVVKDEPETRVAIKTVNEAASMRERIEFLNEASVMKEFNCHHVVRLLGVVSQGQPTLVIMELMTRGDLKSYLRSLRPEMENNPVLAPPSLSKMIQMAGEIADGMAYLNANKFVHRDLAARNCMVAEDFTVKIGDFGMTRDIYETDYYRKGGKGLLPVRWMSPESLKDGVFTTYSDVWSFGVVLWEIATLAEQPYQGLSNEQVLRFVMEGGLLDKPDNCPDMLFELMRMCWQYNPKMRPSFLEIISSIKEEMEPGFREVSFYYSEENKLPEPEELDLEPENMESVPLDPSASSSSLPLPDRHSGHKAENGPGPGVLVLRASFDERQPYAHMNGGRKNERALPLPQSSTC

PRK2 (h) (human) = PRK2 (h) (human) (UniProt Q16513)
MLK1 (h) (human) = MLK1 (h) (human) (UniProt P80192)
GRK7 (h) (human) = target: T3, GRK7 (h) (human) (UniProt Q8WTQ7)
T3 sequence (looked up): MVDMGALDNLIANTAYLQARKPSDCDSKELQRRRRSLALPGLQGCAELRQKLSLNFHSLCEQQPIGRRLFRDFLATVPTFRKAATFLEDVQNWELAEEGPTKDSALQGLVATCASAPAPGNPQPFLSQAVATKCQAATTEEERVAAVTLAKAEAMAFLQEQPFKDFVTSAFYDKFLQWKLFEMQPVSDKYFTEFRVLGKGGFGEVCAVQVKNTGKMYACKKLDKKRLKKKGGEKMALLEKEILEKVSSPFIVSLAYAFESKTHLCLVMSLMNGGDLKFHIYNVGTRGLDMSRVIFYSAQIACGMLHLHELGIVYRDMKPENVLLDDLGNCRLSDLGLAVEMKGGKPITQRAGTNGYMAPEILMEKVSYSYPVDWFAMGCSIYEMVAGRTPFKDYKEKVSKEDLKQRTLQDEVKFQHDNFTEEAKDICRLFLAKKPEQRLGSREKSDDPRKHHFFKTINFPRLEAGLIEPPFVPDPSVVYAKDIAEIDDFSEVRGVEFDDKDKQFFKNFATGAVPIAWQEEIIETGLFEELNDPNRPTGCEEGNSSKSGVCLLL

CaMKIIδ (h) (human) = CaMKIIδ (h) (human) (UniProt Q13557)
PKBβ (h) (human) = PKBβ (h) (human) (UniProt P31751)
PKBβ (h) (human), sequence (P31751 whole entry): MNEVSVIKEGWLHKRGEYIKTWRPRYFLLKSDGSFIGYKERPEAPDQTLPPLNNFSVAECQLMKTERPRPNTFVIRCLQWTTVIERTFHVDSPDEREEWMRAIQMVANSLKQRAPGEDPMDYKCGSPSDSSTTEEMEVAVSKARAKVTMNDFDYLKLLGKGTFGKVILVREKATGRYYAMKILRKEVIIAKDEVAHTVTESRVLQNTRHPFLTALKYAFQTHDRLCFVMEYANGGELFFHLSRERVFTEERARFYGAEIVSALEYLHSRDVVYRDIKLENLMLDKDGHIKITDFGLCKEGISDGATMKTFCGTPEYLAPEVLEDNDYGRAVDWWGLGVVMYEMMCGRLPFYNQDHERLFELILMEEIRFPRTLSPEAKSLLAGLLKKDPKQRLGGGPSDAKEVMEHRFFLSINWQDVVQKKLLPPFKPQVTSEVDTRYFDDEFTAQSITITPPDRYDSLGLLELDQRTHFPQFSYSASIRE

MAPK2 (h) (human) = MAPK2 (h) (human) (UniProt P28482)
MAPK2 (h) (human), sequence (P28482 whole entry): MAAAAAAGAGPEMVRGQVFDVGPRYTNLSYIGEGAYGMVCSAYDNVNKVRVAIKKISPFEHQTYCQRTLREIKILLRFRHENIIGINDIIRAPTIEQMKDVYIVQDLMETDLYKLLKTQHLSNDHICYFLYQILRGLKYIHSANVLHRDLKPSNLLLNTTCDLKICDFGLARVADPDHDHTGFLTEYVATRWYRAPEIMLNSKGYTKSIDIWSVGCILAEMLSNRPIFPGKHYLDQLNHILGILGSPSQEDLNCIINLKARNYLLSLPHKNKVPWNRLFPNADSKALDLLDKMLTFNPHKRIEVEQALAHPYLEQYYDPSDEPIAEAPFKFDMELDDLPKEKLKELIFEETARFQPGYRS

MSSK1 (h) (human) = MSSK1 (h) (human) (UniProt Q9UPE1)
TBK1 (h) (human) = target: T4, TBK1 (h) (human) (UniProt Q9UHD2)
T4 sequence (looked up): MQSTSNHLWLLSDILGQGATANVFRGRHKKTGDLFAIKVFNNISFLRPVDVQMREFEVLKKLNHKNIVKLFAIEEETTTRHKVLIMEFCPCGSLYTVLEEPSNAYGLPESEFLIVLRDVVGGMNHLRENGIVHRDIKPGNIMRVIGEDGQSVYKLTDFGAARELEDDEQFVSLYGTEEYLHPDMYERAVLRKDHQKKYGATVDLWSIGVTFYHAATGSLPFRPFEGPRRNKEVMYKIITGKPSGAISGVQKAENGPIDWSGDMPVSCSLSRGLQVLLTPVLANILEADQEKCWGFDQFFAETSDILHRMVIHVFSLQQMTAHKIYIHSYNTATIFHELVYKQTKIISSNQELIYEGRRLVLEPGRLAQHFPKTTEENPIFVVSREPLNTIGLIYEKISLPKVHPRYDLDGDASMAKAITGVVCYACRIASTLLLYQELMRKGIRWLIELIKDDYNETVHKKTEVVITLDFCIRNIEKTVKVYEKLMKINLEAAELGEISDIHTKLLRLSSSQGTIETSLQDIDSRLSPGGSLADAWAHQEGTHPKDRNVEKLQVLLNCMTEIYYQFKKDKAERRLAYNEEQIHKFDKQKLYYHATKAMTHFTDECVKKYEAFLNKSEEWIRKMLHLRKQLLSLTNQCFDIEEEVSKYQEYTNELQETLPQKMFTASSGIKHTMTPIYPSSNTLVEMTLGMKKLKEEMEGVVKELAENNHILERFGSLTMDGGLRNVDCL

Substance: MMI-0300 (peptide)
- % activity at 100 µM (MKK6 (h) (human)): 48%
- % activity at 100 µM (SAPK4 (h) (human)): 96%
- % activity at 100 µM (WNK2 (h) (human)): 64%
- % activity at 100 µM (MEK1 (h) (human)): 77%
- % activity at 100 µM (DAPK2 (h) (human)): 32%
- % activity at 100 µM (ULK3 (h) (human)): 167%
- % activity at 100 µM (ROCK-I (h) (human)): 79%
- % activity at 100 µM [1]: 80%
- % activity at 100 µM (PRK2 (h) (human)): 33%
- % activity at 100 µM (MLK1 (h) (human)): 40%
- % activity at 100 µM (GRK7 (h) (human)): 122%
- % activity at 100 µM (CaMKIIδ (h) (human)): 1%
- % activity at 100 µM (PKBβ (h) (human)): 84%
- % activity at 100 µM (MAPK2 (h) (human)): 98%
- % activity at 100 µM (MSSK1 (h) (human)): 77%
- % activity at 100 µM (TBK1 (h) (human)): 37%
